The values below come from the supplement of paper PMC5998384.

Series [1] relates to HeLa Kyoto. The series can be described thus: solubility in G1/S (NP-40 vs SDS abundance) (log2 ratio); higher = more soluble. As to conditions: cell cycle stage: G1/S.
The test system of series [2] is HeLa Kyoto. The experiment in a line: melting temperature (median over replicates), in situ; higher = more thermally stable.
The test system of series [3] is HeLa Kyoto. The series can be described thus: solubility change mitosis vs G1/S (difference of NP-40 vs SDS log2 ratios) (log2 ratio difference); higher = more soluble in mitosis.
Series [4] concerns HeLa Kyoto. The experiment in a line: thermal stability score vs G1/S (z-score of summed log2 fold changes over temperatures); higher = more thermally stable than in G1/S.
Setting [5] is: cell cycle stage: early G1 (4.5 h after nocodazole release).
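Wherever melting temperature (median over replicates), in situ is given: HeLa Kyoto cells synchronized by double thymidine or nocodazole block, proteins quantified by TMT10plex mass spectrometry, three independent biological replicates.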
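Wherever solubility change mitosis vs G1/S (difference of NP-40 vs SDS log2 ratios) is given: synchronized HeLa Kyoto cells (double thymidine block for G1/S, nocodazole release for mitosis), protein amounts in NP-40 versus SDS lysates quantified by mass spectrometry, three biological replicates.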
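Wherever solubility in G1/S (NP-40 vs SDS abundance) is given: HeLa Kyoto cells arrested at G1/S by double thymidine block, proteins quantified by TMT10plex mass spectrometry in mild NP-40 versus SDS extracts, three biological replicates.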
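Wherever thermal stability score vs G1/S (z-score of summed log2 fold changes over temperatures) is given: synchronized HeLa Kyoto cells, proteins quantified by TMT10plex mass spectrometry, three biological replicates, mitosis taken 0.5 h after nocodazole release, G1/S directly after double thymidine block.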

On to “MVKLAAKCILAGDPAVGKTALAQIFRSDGAHFQKSYTLTTGMDLVVKTVPVPDTGDSVELFIFDSAGKELFSEMLDKLWESPNVLCLVYDVTNEESFNNCSKWLEKARSQAPGISLPGVLVGNKTDLAGRRAVDSAEARAWALGQGLECFETSVKEMENFEAPFHCLAKQFHQLYREKVEVFRALA [IFT27]”, for which the “solubility in G1/S (log2)” value with HeLa Kyoto [1] amounted to 0.371. Besides, the melting temperature in the series with HeLa Kyoto [2] (cell cycle stage: G1/S) was 52.3 °C; in the series on HeLa Kyoto [2] (cell cycle stage: mitosis), 53.7 °C. Also, the “solubility change mitosis (log2)” value with HeLa Kyoto [3] was -0.134. The thermal stability score is -0.15 in the series with HeLa Kyoto [4] (setting [5]) and -0.857 with HeLa Kyoto [4] (cell cycle stage: mitosis).

As to “MVKLFIGNLPREATEQEIRSLFEQYGKVLECDIIKNYGFVHIEDKTAAEDAIRNLHHYKLHGVNINVEASKNKSKTSTKLHVGNISPTCTNKELRAKFEEYGPVIECDIVKDYAFVHMERAEDAVEAIRGLDNTEFQGKRMHVQLSTSRLRTAPGMGDQSGCYRCGKEGHWSKECPIDRSGRVADLTEQYNEQYGAVRTPYTMSYGDSLYYNNAYGALDAYYKRCRAARSYEAVAAAAASVYNYAEQTLSQLPQVQNTAMASHLTSTSLDPYDRHLLPTSGAAATAAAAAAAAAAVTAASTSYYGRDRSPLRRATAPVPTVGEGYGYGHESELSQASAAARNSLYDMARYEREQYADRARYSAF [RBM4]”, the “solubility in G1/S (log2)” value in the series with HeLa Kyoto [1] turned out to be 0.281. In addition, the melting temperature in the series with HeLa Kyoto [2] (cell cycle stage: G1/S) worked out at 49.6 °C; with HeLa Kyoto [2] (cell cycle stage: mitosis), 48 °C. Also, the “solubility change mitosis (log2)” value in the series with HeLa Kyoto [3] was -0.0121. For the same sequence, the thermal stability score was -0.245 with HeLa Kyoto [4] (setting [5]) and -0.114 in the series on HeLa Kyoto [4] (cell cycle stage: mitosis).

For the sequence “MVLSELAARLNCAEYKNWVKAGHCLLLLRSCLQGFVGREVLSFHRGLLAAAPGLGPRAVCRGGSRCSPRARQFQPQCQVCAEWKREILRHHVNRNGDVHWGNCRPGRWPVDAWEVAKAFMPRGLADKQGPEECDAVALLSLINSCDHFVVDRKKVTEVIKCRNEIMHSSEMKVSSTWLRDFQMKIQNFLNEFKNIPEIVAVYSRIEQLLTSDWAVHIPEEDQRDGCECEMGTYLSESQVNEIEMQLLKEKLQEIYLQAEEQEVLPEELSNRLEVVKEFLRNNEDLRNGLTEDMQKLDSLCLHQKLDSQEPGRQTPDRKA [CXORF38]”, in the series on HeLa Kyoto [1], the “solubility in G1/S (log2)” value turned out to be 0.0857. Further, the melting temperature in the series on HeLa Kyoto [2] (cell cycle stage: G1/S) stood at 52.5 °C; in the series with HeLa Kyoto [2] (cell cycle stage: mitosis) it was 52.1 °C. Also, the “solubility change mitosis (log2)” value in the series on HeLa Kyoto [3] is -0.0263. The figures for the thermal stability score in the series on HeLa Kyoto [4] (setting [5]) and with HeLa Kyoto [4] (cell cycle stage: mitosis) were -0.304 and 2.18, respectively.

Regarding “MVLSQRQRDELNRAIADYLRSNGYEEAYSVFKKEAELDVNEELDKKYAGLLEKKWTSVIRLQKKVMELESKLNEAKEEFTSGGPLGQKRDPKEWIPRPPEKYALSGHRSPVTRVIFHPVFSVMVSASEDATIKVWDYETGDFERTLKGHTDSVQDISFDHSGKLLASCSADMTIKLWDFQGFECIRTMHGHDHNVSSVAIMPNGDHIVSASRDKTIKMWEVQTGYCVKTFTGHREWVRMVRPNQDGTLIASCSNDQTVRVWVVATKECKAELREHEHVVECISWAPESSYSSISEATGSETKKSGKPGPFLLSGSRDKTIKMWDVSTGMCLMTLVGHDNWVRGVLFHSGGKFILSCADDKTLRVWDYKNKRCMKTLNAHEHFVTSLDFHKTAPYVVTGSVDQTVKVWECR [PAFAH1B1]”, the “solubility in G1/S (log2)” value with HeLa Kyoto [1] is -0.211. Moreover, the figures for the melting temperature in the series on HeLa Kyoto [2] (cell cycle stage: G1/S) and in the series with HeLa Kyoto [2] (cell cycle stage: mitosis) were 55.8 °C and 55.5 °C, respectively. Further, the “solubility change mitosis (log2)” value in the series with HeLa Kyoto [3] is -0.149. Also, the figures for the thermal stability score in the series on HeLa Kyoto [4] (setting [5]) and in the series on HeLa Kyoto [4] (cell cycle stage: mitosis) were 1.3 and -0.762, respectively.

For “MVMEKPSPLLVGREFVRQYYTLLNKAPEYLHRFYGRNSSYVHGGVDASGKPQEAVYGQNDIHHKVLSLNFSECHTKIRHVDAHATLSDGVVVQVMGLLSNSGQPERKFMQTFVLAPEGSVPNKFYVHNDMFRYEDEVFGDSEPELDEESEDEVEEEQEERQPSPEPVQENANSGYYEAHPVTNGIEEPLEESSHEPEPEPESETKTEELKPQVEEKNLEELEEKSTTPPPAEPVSLPQEPPKAFSWASVTSKNLPPSGTVSSSGIPPHVKAPVSQPRVEAKPEVQSQPPRVREQRPRERPGFPPRGPRPGRGDMEQNDSDNRRIIRYPDSHQLFVGNLPHDIDENELKEFFMSFGNVVELRINTKGVGGKLPNFGFVVFDDSEPVQRILIAKPIMFRGEVRLNVEEKKTRAARERETRGGGDDRRDIRRNDRGPGGPRGIVGGGMMRDRDGRGPPPRGGMAQKLGSGRGTGQMEGRFTGQRR [G3BP2]”, in the series on HeLa Kyoto [1], the “solubility in G1/S (log2)” value was -0.124. Moreover, the melting temperature was 51.7 °C with HeLa Kyoto [2] (cell cycle stage: G1/S) and 50.4 °C in the series with HeLa Kyoto [2] (cell cycle stage: mitosis). Also, in the series on HeLa Kyoto [3], the “solubility change mitosis (log2)” value was 0.158. Further, the thermal stability score is -0.995 with HeLa Kyoto [4] (setting [5]) and -2.86 in the series on HeLa Kyoto [4] (cell cycle stage: mitosis).

Take “MVPGEENQLVPKEDVFWRCRQNIFDEMKKKFLQIENAAEEPRVLCIIQDTTNSKTVNERITLNLPASTPVRKLFEDVANKVGYINGTFDLVWGNGINTADMAPLDHTSDKSLLDANFEPGKKNFLHLTDKDGEQPQILLEDSSAGEDSVHDRFIGPLPREGSGGSTSDYVSQSYSYSSILNKSETGYVGLVNQAMTCYLNSLLQTLFMTPEFRNALYKWEFEESEEDPVTSIPYQLQRLFVLLQTSKKRAIETTDVTRSFGWDSSEAWQQHDVQELCRVMFDALEQKWKQTEQADLINELYQGKLKDYVRCLECGYEGWRIDTYLDIPLVIRPYGSSQAFASVEEALHAFIQPEILDGPNQYFCERCKKKCDARKGLRFLHFPYLLTLQLKRFDFDYTTMHRIKLNDRMTFPEELDMSTFIDVEDEKSPQTESCTDSGAENEGSCHSDQMSNDFSNDDGVDEGICLETNSGTEKISKSGLEKNSLIYELFSVMVHSGSAAGGHYYACIKSFSDEQWYSFNDQHVSRITQEDIKKTHGGSSGSRGYYSSAFASSTNAYMLIYRLKDPARNAKFLEVDEYPEHIKNLVQKERELEEQEKRQREIERNTCKIKLFCLHPTKQVMMENKLEVHKDKTLKEAVEMAYKMMDLEEVIPLDCCRLVKYDEFHDYLERSYEGEEDTPMGLLLGGVKSTYMFDLLLETRKPDQVFQSYKPGEVMVKVHVVDLKAESVAAPITVRAYLNQTVTEFKQLISKAIHLPAETMRIVLERCYNDLRLLSVSSKTLKAEGFFRSNKVFVESSETLDYQMAFADSHLWKLLDRHANTIRLFVLLPEQSPVSYSKRTAYQKAGGDSGNVDDDCERVKGPVGSLKSVEAILEESTEKLKSLSLQQQQDGDNGDSSKSTETSDFENIESPLNERDSSASVDNRELEQHIQTSDPENFQSEERSDSDVNNDRSTSSVDSDILSSSHSSDTLCNADNAQIPLANGLDSHSITSSRRTKANEGKKETWDTAEEDSGTDSEYDESGKSRGEMQYMYFKAEPYAADEGSGEGHKWLMVHVDKRITLAAFKQHLEPFVGVLSSHFKVFRVYASNQEFESVRLNETLSSFSDDNKITIRLGRALKKGEYRVKVYQLLVNEQEPCKFLLDAVFAKGMTVRQSKEELIPQLREQCGLELSIDRFRLRKKTWKNPGTVFLDYHIYEEDINISSNWEVFLEVLDGVEKMKSMSQLAVLSRRWKPSEMKLDPFQEVVLESSSVDELREKLSEISGIPLDDIEFAKGRGTFPCDISVLDIHQDLDWNPKVSTLNVWPLYICDDGAVIFYRDKTEELMELTDEQRNELMKKESSRLQKTGHRVTYSPRKEKALKIYLDGAPNKDLTQD [USP47]”: the “solubility in G1/S (log2)” value in the series with HeLa Kyoto [1] is -0.111. Besides, the melting temperature in the series with HeLa Kyoto [2] (cell cycle stage: G1/S) stood at 49.6 °C; with HeLa Kyoto [2] (cell cycle stage: mitosis) it was 49.7 °C. In the series with HeLa Kyoto [3], the “solubility change mitosis (log2)” value is -0.168. Further, the thermal stability score is 0.111 in the series on HeLa Kyoto [4] (setting [5]) and 0.427 with HeLa Kyoto [4] (cell cycle stage: mitosis).

As to “MVQLRPRASRAPASAEAMVDEGQLASEEEEAEHGLLLGQPSSGAAAEPLEEDEEGDDEFDDEAPEELTFASAQAEAREEERRVRETVRRDKTLLKEKRKRREELFIEQKKRKLLPDTILEKLTTASQTNIKKSPGKVKEVNLQKKNEDCEKGNDSKKVKVQKVQSVSQNKSYLAVRLKDQDLRDSRQQAAQAFIHNSLYGPGTNRTTVNKFLSLANKRLPVKRAAVQFLNNAWGIQKKQNAKRFKRRWMVRKMKTKK [NOL7]”, the “solubility in G1/S (log2)” value in the series on HeLa Kyoto [1] was -1.02. In addition, the melting temperature in the series on HeLa Kyoto [2] (cell cycle stage: G1/S) amounted to 56.9 °C; with HeLa Kyoto [2] (cell cycle stage: mitosis), 54 °C. Besides, the “solubility change mitosis (log2)” value in the series on HeLa Kyoto [3] was 0.763. The results for the thermal stability score with HeLa Kyoto [4] (setting [5]) and in the series on HeLa Kyoto [4] (cell cycle stage: mitosis) were -0.722 and -4.23, respectively.
